In patent US20250304640A1 (ORIKINE BIO SL, published 2025):

Legend:
IL10RA = target: T1, IL10RA (UniProt Q13651 22-578, limits assumed); experiment: cell-based or functional assay
T1 sequence (looked up): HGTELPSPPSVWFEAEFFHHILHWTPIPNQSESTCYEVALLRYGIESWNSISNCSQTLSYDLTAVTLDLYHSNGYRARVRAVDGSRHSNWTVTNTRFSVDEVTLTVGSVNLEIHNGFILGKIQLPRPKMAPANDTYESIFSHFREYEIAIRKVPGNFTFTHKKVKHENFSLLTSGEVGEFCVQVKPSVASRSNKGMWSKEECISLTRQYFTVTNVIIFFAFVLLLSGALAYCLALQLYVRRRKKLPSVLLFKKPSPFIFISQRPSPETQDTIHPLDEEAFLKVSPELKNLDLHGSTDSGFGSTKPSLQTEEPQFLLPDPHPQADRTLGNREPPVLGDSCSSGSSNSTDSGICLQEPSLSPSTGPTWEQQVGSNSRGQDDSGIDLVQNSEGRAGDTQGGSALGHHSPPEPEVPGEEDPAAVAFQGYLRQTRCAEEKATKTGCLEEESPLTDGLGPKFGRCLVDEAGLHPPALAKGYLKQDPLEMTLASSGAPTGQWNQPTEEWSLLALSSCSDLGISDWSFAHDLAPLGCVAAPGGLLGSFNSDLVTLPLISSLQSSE

IL10RB = target: T2, IL10RB (UniProt Q08334 20-325, limits assumed); experiment: cell-based or functional assay
T2 sequence (looked up): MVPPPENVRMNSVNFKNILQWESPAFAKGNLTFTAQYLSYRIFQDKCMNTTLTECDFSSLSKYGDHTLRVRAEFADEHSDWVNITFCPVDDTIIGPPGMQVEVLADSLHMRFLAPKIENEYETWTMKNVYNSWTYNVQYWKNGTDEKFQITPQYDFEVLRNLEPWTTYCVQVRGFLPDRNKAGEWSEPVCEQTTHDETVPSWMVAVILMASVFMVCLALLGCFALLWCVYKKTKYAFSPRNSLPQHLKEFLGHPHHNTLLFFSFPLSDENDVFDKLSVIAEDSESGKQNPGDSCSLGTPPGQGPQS

B1: ORK10-003-HiBit (ligand)
chain: MTQSENSCTHFPGNLPNMLRDLRDAFSRVKTFFQMKDQLDNLLLKESLLEDFKGYLGCQALSEMIQFYLEEVMPQAENQDPDIKAHVNSLGENLKTLRLRLRRCHRFLPCENKSKAVEQVKNAFNKLQEKGIYKAMSEFDIFINYIEAYLYKTITPEFANMLRDLRDAFSRVKTFFQMKDQLDNLLLKESLLEDFKGYLGCQALSEMIQFYLEEVMPQAENQDPDIKAHVNSLGENLKTLRLRLRRCHRFLPCENKSKAVEQVKNAFNKLQEKGIYKAMSEFDIFINYIEAYMTMGGVSGWRLFKKIS
EC-50, HEK-Blue IL-10 reporter cells (IL10RA): 9.44e-11
EC-50, HEK-Blue IL-10 reporter cells (IL10RB): 9.53e-11
